Data on seven molecules can be found in patent publication US11479601B2, “Antibodies specific to Sonic Hedgehog and method of use thereof” (The Regents of the University of California, priority 2016, dated 2022).

Experiment [1] addresses full-length human Sonic Hedgehog (Shh) expressed in cells (endogenous, or transfected with pCMV-Shh) (human) (UniProt Q15465). As to the kind of experiment: FACS of non-permeabilised A549 cells labeled with the antibody; Total Cells Sorted 19 million, % Shh+ Cells 0.06%.
Experiment [2] shares this target. Briefly: flow cytometry, cells transfected with full-length Shh. Background: A flow cytometer gives signals particle by particle.
Experiment [3] has the same target. Briefly: FACS of non-permeabilised A549 cells.
For experiment [4] the target is unchanged. Briefly: flow cytometry, A549 + vector control (endogenous Shh).
Experiment [5] shares this target. Briefly: flow cytometry of ground up permeabilised A549 xenograft tumour cells from control IgG-treated mice.
The target is the same in experiment [6]. As to the kind of experiment: flow cytometry, A549 cells transfected with pCMV-Shh.
Experiment [7] has the same target. Briefly: flow cytometry, untransfected cells (No transfection).
The test system of a further experiment is advanced SCLC. The following applies: sonidegib in addition to cisplatin/etoposide; cited from earlier work.
The test system of a further experiment is Shh gene expression. Briefly: Shh gene expression by qPCR in drug-treated A549 cells. Format: cell-based, human. The following applies: after cisplatin treatment. Background: Real-time PCR tracks product formation cycle by cycle.
Another experiment concerns Shh+ cells (A549). Briefly: Shh rate by flow cytometry in drug-treated A549 cells. Format: cell-based, human. How it is done: FACS (1:40). The secondary antibody was a donkey anti-mouse FITC-linked antibody (ab97029, 1:100, Abcam). For cell analysis after treatment assays (chemotherapy or GDC0449), a dead cell marker (SytoxRed, Invitrogen) was also used. For human fresh samples, an anti-CD45 APC-linked antibody (ab28106, 1:100, Abcam), and a dead cells marker (SytoxRed, Invitrogen) were added. For staining of stable transfected cell lines, mouse anti-HA antibody (Abcam, 1:100) and rabbit anti-FLAG antibody (Cell Signaling; 1:400) were used. Corresponding secondary antibodies were donkey anti-mouse AlexaFluor647 (Invitrogen, 1:1000) and donkey anti-rabbit AlexFluor594 (Invitrogen, 1:1000) antibodies. Flow cytometry analyses were performed on AccuriC6 flow cytometer (BD Biosciences), and FACS on FACSAria II (BD Biosciences). Flow analyses were based at least on 200,000 cells, and each test was made at least in triplicate. For all experiments, a negative control with cells processed without primary antibody was used. Sorted cells (Shh+ and Shh− cells) were collected on fresh media, and seeded on culture plates or freezed at −80° C. according to further analyses. Flow cytometry analysis was performed without membrane permeabilization prior to labeling the cells, unless otherwise indicated (e.g., FIG. 1D). Cisplatin was purchased from Sigma, and freshly reconstituted in PBS (2 g/1). Docetaxel was purchased from Tocris Bioscience, reconstituted in DMSO (5 g/1 stock dilution at −20° C.; further dilution in fresh culture medium) for in vitro assays, or reconstituted in ethanol/polysorbate 80 (1:1; 5 g/1 stock dilution at −20° C.; further dilution in PBS) for in vivo assays. GDC0449 was purchased from Selleck Chemicals, and reconstituted in DMSO (30 mM stock dilution). Shh human recombinant protein was obtained from EBioscience, and used at 1200 ng/ml. The mouse Shh-C-terminal antibody (mentioned above) was used for flow cytometry and FACS (1:40). The secondary antibody was a donkey anti-mouse FITC-linked antibody (ab97029, 1:100, Abcam). For cell analysis after treatment assays (chemotherapy or GDC0449), a marker for dead cells (SytoxRed®, Invitrogen) was also used. For fresh human samples, an anti-CD45 APC-linked antibody (ab28106, 1:100, Abcam) was added, and a marker for dead cells (SytoxRed®, Invitrogen). For staining of stable transfected cell lines, a mouse anti-HA antibody (Abcam, 1:100) and a rabbit anti-FLAG antibody (Cell Signaling; 1:400) were used. Corresponding secondary antibodies were donkey anti-mouse AlexaFluor647 (Invitrogen, 1:1 000) and donkey anti-rabbit AlexFluor594 (Invitrogen, 1:1 000). Flow cytometry analyses were performed on an AccuriC6 flow cytometer (BD Biosciences), and FACS on a FACSAria II (BD Biosciences). […]

The next experiment concerns A549 Shh− cells. As to the kind of experiment: Migration/wound healing assay on A549 Shh− cells. Format: cell-based, human. The following applies: Shh recombinant protein 1200 ng/mL, day 3. How it is done: Migration assay was performed by wound healing assay. Monolayers of cells were: cultured, scratched, treated with media containing proteins and/or drugs at different concentrations: Shh protein, DMSO, and GDC0449, and recorded 0 and 24, 72 and 96 hours after treatment.
Wound healing assays were performed to study cell migration. Monolayers of cells were cultured, scratched, treated with media containing proteins and/or drugs at different concentrations: Shh protein, DMSO, and GDC0449-recorded at 0, 24, 72 and 96 hours after treatment.

The subject of another experiment is A549 cells. Briefly: Viability of A549 cells treated with Shh antibodies ± GLI inhibitor 249C. Format: cell-based, human. The following applies: Homo sapiens, A549. The procedure:
The effect of the C-terminal Shh antibodies from clones 2G4 and 2D9 on the viability of A549 cells was determined. A549 cells were exposed to increasing concentrations of the C-terminal Shh antibodies (2G4, 2D9), or antibodies against the N-terminal portion of Shh protein (6D3, 2E1), and the effective dose (ED50) was determined (assay 1: FIG. 16A; assay 2: FIG. 16B). […] Possibly due to the fact that very few cells express full-length Shh on the cell surface, the cytotoxic effect of the C-terminal Shh antibodies was not as potent as the cytotoxic effect of the N-terminal antibodies.
Next, the cytotoxicity of the C-terminal Shh antibodies was tested when the antibodies were used in conjunction with a small-molecule inhibitor of GLI zinc-finger transcription factor signaling, 249C (4-(5-chlorofuran-2-yl)-1,3-bis(2,4-difluorophenyl)-5-methyl-N-((4-methylmorpholin-2-yl)methyl)-4,5-dihydro-1H-pyrazole-5-carboxamide; Compound 135 above). A549 cells were exposed to varying concentrations of the C-terminal antibodies (2G4, 2D9) or the N-terminal antibodies (6D3, 2E1), in the presence or absence of a very low dose (40 nM) of 249C. (The IC50 of 249C in A549 cells is ˜70 nM.)

Experiment [8] deals with T1, recombinant full-length Shh protein (human, UniProt Q15465 24-462, limits assumed).
T1 construct: Printed only as 'full-length recombinant Shh protein'; also called full-length recombinant Shh protein
As to the kind of experiment: BLI (Octet), response (nm) against Shh conc (nM), four points between about 28 and 165 nM, fitted line, R2 = 0.97.

In experiment [9] the target is T1, recombinant full-length Shh protein. Briefly: BLI (Octet), response (nm) against Shh conc (nM), four points between about 28 and 165 nM, fitted line, R2 = 0.98. (In general: In BLI a coated tip is dipped into the sample, and binding shifts an interference pattern.)

Procedure for Shh gene expression: RNA from unsorted cells was extracted with Qiagen Rneasy® Minikit (Quiagen), according to manufacturer instructions. RNA from sorted cells was extracted with Arcturus PicoPure RNA Isolation Kit (Life technologies). cDNA was then synthesized with iScript cDNA Synthesis Kit (Bio-Rad), according to manufacturer instructions. Commercial primers for Shh gene were obtained from Origen. Quantitative PCR was performed on Applied Biosystems' 7900HT Fast Real-Time PCR System, with triplicate for each gene analysis. Gene expression analysis was calculated with deltaCT method, with normalization with endogenous control (18s gene) (normalized gene expression level=2^−deltaCT(test gene)−deltaCT(18s)). For ddPCR, droplets creation, PCR and results analysis were performed according to manufacturer instructions (BioRad, QX100 ddPCR System, Quantasoft software). Results of ddPCR were expressed as FAM concentrations (copies/μl). RNA from unsorted cells was extracted with Qiagen's RNeasy Mini kit (Qiagen) according to the manufacturer's instructions. […] Quantitative RT-PCR (qRT-PCR) was performed on an Applied Biosystems 7900HT Fast Real-Time PCR System, in triplicate for each sample. Gene expression analysis was calculated with the delta-deltaCT method normalized to an endogenous control (18S gene). […] Results of ddPCR were expressed as FAM concentrations (copies/0).

In experiment [1], “commercial C-terminal Shh antibody (Abcam ab53281, rabbit)” gave a # Shh+ Cells of 3810 cells. The % of cells labeled in experiment [2] was 2.45%; in experiment [4] it was 1%; in experiment [6], 5.1%; in experiment [7], 0.11%. In addition, the % Shh+ cells sorted in [3] turned out to be 0.06%. The same molecule displayed a % Shh-labeled cells in experiment [5] of 80%.
`Cc1c(C(=O)Nc2ccc(N3C[C@@H](C)O[C@@H](C)C3)nc2)cccc1-c1ccc(OC(F)(F)F)cc1` [sonidegib, N-[6-[(2S,6R)-2,6-Dimethylmorpholin-4-yl]pyridin-3-yl]-2-methyl-3-[4-(trifluoromethoxy)phenyl]benzamide]: the response rate in the experiment on advanced SCLC is on record as 79%.
On to `N.N.[Cl][Pt][Cl]` [cisplatin], for which the “Shh gene expression (qPCR)” value in the experiment with Shh gene expression was “elevation”. Besides, the “Shh rate, Shh+ cells of live cells” value in the experiment with Shh+ cells (A549) (A549 cells, cisplatin 1 mM, 72 h) is on record as 5%. In the experiment on Shh+ cells (A549) (NSCLC cells, escalating doses of cisplatin), the “Shh rate with escalating doses” value is recorded as “absolute augmentation”.
On to “human recombinant N-terminal Shh peptide: Shh human recombinant protein from eBioscience, used at 1200 ng/ml”, for which the “augmentation in the migration rate” value with A549 Shh− cells came out at 15%.
In the case of `CN1CCOC(CNC(=O)C2(C)C(c3ccc(Cl)o3)C(c3ccc(F)cc3F)=NN2c2ccc(F)cc2F)C1` (stereo not drawn) [Ab 249C, 4-(5-chlorofuran-2-yl)-1,3-bis(2,4-difluorophenyl)-5-methyl-N-((4-methylmorpholin-2-yl)methyl)-4,5-dihydro-1H-pyrazole-5-carboxamide], in the experiment on A549 cells, the IC50 was approximately 70 nM.

B1: Ab 1C11-2D9 (antibody, mouse IgG1, kappa, V domains shown)
VH: EVKLVESGGGLVKPGGSLKLSCAASGFTFSSYTMSWVRQTPAKRLEWVATISSGGGNTYYPDSVKGRFTISRDNARNTLYLQMSSLRSEDTAMYYCARDYRSLFAYWGQGTLVTVSA
VL: QIVLTQSPAIMSASPGEKVTITCSASSSVSYMHWFQQKPGTSPKLWIYSTSNLASGVPARFSGSGSGTSYSLTISRMEAEDAATYYCQQRSSYPFTFGSGTKLEIKR
notes: also called clone 2D9; Ab11-2D9
As to B1, the Kd in [8] stood at 4.6 nM.

B2: Ab 1C11-2G4 (antibody, IgG1, V domains shown)
VH: B1 VH
VL: QIVLTQSPAIMSASPGEKVTITCSASSSVSYMHWFQQKPGTSPKLWIYSTSNLASGVPARFSGSGSGTSYSLTISRMEAEDAATYYCQQRSSYPFTFGSGTKLEIK
notes: also called clone 2G4; Ab 2G4
Turning to B2, the Kd in [9] amounted to 4 nM.

One may read the IC50 as the concentration that inhibits the measured activity by half. What is called Kd is the concentration at which binding is half-saturated.
